From patent publication US20040006018A1 (Genentech, published 2004)

Key:
[1] = target: T1, Mouse LIF (leukemia inhibitory factor) (mouse, UniProt P09056 24-203); assay: 0.042 nM 125I-mouse LIF on M1 cells competed by unlabeled LIF, Scatchard, one-site fit
Source text: (§1) Shown are competition and Scatchard (insert) plots of the data.

[2] = target: T1, Mouse LIF (leukemia inhibitory factor); assay: 0.047 nM 125I-mouse CT-1 on M1 cells competed by unlabeled LIF, Scatchard, one-site fit
Source text: as §1

[3] = target: T1, Mouse LIF (leukemia inhibitory factor); assay: Scatchard analysis of binding to M1 cells, summary over both labeled ligands
[4] = target: T1, Mouse LIF (leukemia inhibitory factor); assay: binding of LIF to His-tagged soluble LIF receptor on Ni-NTA agarose
[5] = target: T1, Mouse LIF (leukemia inhibitory factor); assay: competition for 125I-human LIF binding to Hela cells

B1: Mouse LIF receptor on mouse M1 cells (LIF receptor complex with gp130) (receptor)
chain 1: LKRGVQDLKCTTNNMRVWDCTWPAPLGVSPGTVKDICIKDRFHSCHPLETTNVKIPALSPGDHEVTINYLNGFQSKFTLNEKDVSLIPETPEILDLSADFFTSSLLLKWNDRGSALPHPSNATWEIKVLQNPRTEPVALVLLNTMLSGKDTVQHWNWTSDLPLQCATHSVSIRWHIDSPHFSGYKEWSDWSPLKNISWIRNTETNVFPQDKVVLAGSNMTICCMSPTKVLSGQIGNTLRPLIHLYGQTVAIHILNIPVSENSGTNIIFITDDDVYGTVVFAGYPPDVPQKLSCETHDLKEIICSWNPGRITGLVGPRNTEYTLFESISGKSAVFHRIEGLTNETYRLGVQMHPGQEIHNFTLTGRNPLGQAQSAVVINVTERVAPHDPTSLKVKDINSTVVTFSWYLPGNFTKINLLCQIEICKANSKKEVRNATIRGAEDSTYHVAVDKLNPYTAYTFRVRCSSKTFWKWSRWSDEKRHLTTEATPSKGPDTWREWSSDGKNLIVYWKPLPINEANGKILSYNVSCSLNEETQSVLEIFDPQHRAEIQLSKNDYIISVVARNSAGSSPPSKIASMEIPNDDITVEQAVGLGNRIFLTWRHDPNMTCDYVIKWCNSSRSEPCLLDWRKVPSNSTETVIESDQFQPGVRYNFYLYGCTNQGYQLLRSIIGYVEELAPIVAPNFTVEDTSADSILVKWDDIPVEELRGFLRGYLFYFQKGERDTPKTRSLEPHHSDIKLKNITDISQKTLRIADLQGKTSYHLVLRAYTHGGLGPEKSMFVVTKENSVGLIIAILIPVAVAVIVGVVTSILCYRKREWIKETFYPDIPNPENCKALQFQKSVCEGSNALKTLEMNPCTPNNVEVLESRSIVPKIEDTEIISPVAERPGERSEVDPENHVVVSYCPPIIEEEITNPAADEVGGASQVVYIDVQSMYQPQAKAEEEQDVDPVVVAGYKPQMRLPISPAVEDTAAEDEEGKTAGYRPQANVNTWNLVSPDSPRSTDSNNEVVSFGSPCSINSRQFLIPPKDEDSPKSNGGGWSFTNFFQNKPND
chain 2: QLLEPCGYIYPEFPVVQRGSNFTAICVLKEACLQHYYVNASYIVWKTNHAAVPREQVTVINRTTSSVTFTDVVLPSVQLTCNILSFGQIEQNVYGVTMLSGFPPDKPTNLTCIVNEGKNMLCQWDPGRETYLETNYTLKSEWATEKFPDCQSKHGTSCMVSYMPTYYVNIEVWVEAENALGKVSSESINFDPVDKVKPTPPYNLSVTNSEELSSILKLSWVSSGLGGLLDLKSDIQYRTKDASTWIQVPLEDTMSPRTSFTVQDLKPFTEYVFRIRSIKDSGKGYWSDWSEEASGTTYEDRPSRPPSFWYKTNPSHGQEYRSVRLIWKALPLSEANGKILDYEVILTQSKSVSQTYTVTGTELTVNLTNDRYVASLAARNKVGKSAAAVLTIPSPHVTAAYSVVNLKAFPKDNLLWVEWTPPPKPVSKYILEWCVLSENAPCVEDWQQEDATVNRTHLRGRLLESKCYQITVTPVFATGPGGSESLKAYLKQAAPARGPTVRTKKVGKNEAVLAWDQIPVDDQNGFIRNYSISYRTSVGKEMVVHVDSSHTEYTLSSLSSDTLYMVRMAAYTDEGGKDGPEFTFTTPKFAQGEIEAIVVPVCLAFLLTTLLGVLFCFNKRDLIKKHIWPNVPDPSKSHIAQWSPHTPPRHNFNSKDQMYSDGNFTDVSVVEIEANNKKPCPDDLKSVDLFKKEKVSTEGHSSGIGGSSCMSSSRPSISSNEENESAQSTASTVQYSTVVHSGYRHQVPSVQVFSRSESTQPLLDSEERPEDLQLVDSVDGGDEILPRQPYFKQNCSQPEACPEISHFERSNQVLSGNEEDFVRLKQQQVSDHISQPYGSEQRRLFQEGSTADALGTGADGQMERFESVGMETTIDEEIPKSYLPQTVRQGGYMPQ
notes: whole, on cells; Endogenous receptor on M1 cells; also called LIFRβ
Kd [1]: 0.26 nM | Kd [2]: 0.19 nM | Kd [3]: ~0.2 nM

B2: Soluble mouse LIF receptor (extracellular domain, amino acids 1-826, with a C-terminal tag of 6 histidine residues) (receptor)
chain: LKRGVQDLKCTTNNMRVWDCTWPAPLGVSPGTVKDICIKDRFHSCHPLETTNVKIPALSPGDHEVTINYLNGFQSKFTLNEKDVSLIPETPEILDLSADFFTSSLLLKWNDRGSALPHPSNATWEIKVLQNPRTEPVALVLLNTMLSGKDTVQHWNWTSDLPLQCATHSVSIRWHIDSPHFSGYKEWSDWSPLKNISWIRNTETNVFPQDKVVLAGSNMTICCMSPTKVLSGQIGNTLRPLIHLYGQTVAIHILNIPVSENSGTNIIFITDDDVYGTVVFAGYPPDVPQKLSCETHDLKEIICSWNPGRITGLVGPRNTEYTLFESISGKSAVFHRIEGLTNETYRLGVQMHPGQEIHNFTLTGRNPLGQAQSAVVINVTERVAPHDPTSLKVKDINSTVVTFSWYLPGNFTKINLLCQIEICKANSKKEVRNATIRGAEDSTYHVAVDKLNPYTAYTFRVRCSSKTFWKWSRWSDEKRHLTTEATPSKGPDTWREWSSDGKNLIVYWKPLPINEANGKILSYNVSCSLNEETQSVLEIFDPQHRAEIQLSKNDYIISVVARNSAGSSPPSKIASMEIPNDDITVEQAVGLGNRIFLTWRHDPNMTCDYVIKWCNSSRSEPCLLDWRKVPSNSTETVIESDQFQPGVRYNFYLYGCTNQGYQLLRSIIGYVEELAPIVAPNFTVEDTSADSILVKWDDIPVEELRGFLRGYLFYFQKGERDTPKTRSLEPHHSDIKLKNITDISQKTLRIADLQGKTSYHLVLRAYTHGGLGPEKSMFVVTKEHHHHHH
notes: range 44-826; Expressed in human 293 cells, purified on Ni-NTA agarose; single band of 120 kDa; also called smLIFR; soluble LIF receptor
Kd [4]: 1.5 nM

B3: Human LIF receptor on human Hela cells (receptor)
chain: QKKGAPHDLKCVTNNLQVWNCSWKAPSGTGRGTDYEVCIENRSRSCYQLEKTSIKIPALSHGDYEITINSLHDFGSSTSKFTLNEQNVSLIPDTPEILNLSADFSTSTLYLKWNDRGSVFPHRSNVIWEIKVLRKESMELVKLVTHNTTLNGKDTLHHWSWASDMPLECAIHFVEIRCYIDNLHFSGLEEWSDWSPVKNISWIPDSQTKVFPQDKVILVGSDITFCCVSQEKVLSALIGHTNCPLIHLDGENVAIKIRNISVSASSGTNVVFTTEDNIFGTVIFAGYPPDTPQQLNCETHDLKEIICSWNPGRVTALVGPRATSYTLVESFSGKYVRLKRAEAPTNESYQLLFQMLPNQEIYNFTLNAHNPLGRSQSTILVNITEKVYPHTPTSFKVKDINSTAVKLSWHLPGNFAKINFLCEIEIKKSNSVQEQRNVTIKGVENSSYLVALDKLNPYTLYTFRIRCSTETFWKWSKWSNKKQHLTTEASPSKGPDTWREWSSDGKNLIIYWKPLPINEANGKILSYNVSCSSDEETQSLSEIPDPQHKAEIRLDKNDYIISVVAKNSVGSSPPSKIASMEIPNDDLKIEQVVGMGKGILLTWHYDPNMTCDYVIKWCNSSRSEPCLMDWRKVPSNSTETVIESDEFRPGIRYNFFLYGCRNQGYQLLRSMIGYIEELAPIVAPNFTVEDTSADSILVKWEDIPVEELRGFLRGYLFYFGKGERDTSKMRVLESGRSDIKVKNITDISQKTLRIADLQGKTSYHLVLRAYTDGGVGPEKSMYVVTKENSVGLIIAILIPVAVAVIVGVVTSILCYRKREWIKETFYPDIPNPENCKALQFQKSVCEGSSALKTLEMNPCTPNNVEVLETRSAFPKIEDTEIISPVAERPEDRSDAEPENHVVVSYCPPIIEEEIPNPAADEAGGTAQVIYIDVQSMYQPQAKPEEEQENDPVGGAGYKPQMHLPINSTVEDIAAEEDLDKTAGYRPQANVNTWNLVSPDSPRSIDSNSEIVSFGSPCSINSRQFLIPPKDEDSPKSNGGGWSFTNFFQNKPND
notes: whole, on cells; Endogenous receptor on cells; other subunits (gp130) not examined on these cells
binding result [5]: no binding
